Measured values reported in paper PMC4758095.

B1: SR-AI (scavenger receptor A type I): N143Q-N184Q (protein)
parent chain: MEQWDHFHNQQEDTDSCSESVKFDARSMTALLPPNPKNSPSLQEKLKSFKAALIALYLLVFAVLIPLIGIVAAQLLKWETKNCSVSSTNANDITQSLTGKGNDSEEEMRFQEVFMEHMSNMEKRIQHILDMEANLMDTEHFQNFSMTTDQRFNDILLQLSTLFSSVQGHGNAIDEISKSLISLNTTLLDLQLNIENLNGKIQENTFKQQEEISKLEERVYNVSAEIMAMKEEQVHLEQEIKGEVKVLNNITNDLRLKDWEHSQTLRNITLIQGPPGPPGEKGDRGPTGESGPRGFPGPIGPPGLKGDRGAIGFPGSRGLPGYAGRPGNSGPKGQKGEKGSGNTLTPFTKVRLVGGSGPHEGRVEILHSGQWGTICDDRWEVRVGQVVCRSLGYPGVQAVHKAAHFGQGTGPIWLNEVFCFGRESSIEECKIRQWGTRACSHSEDAGVTCTL
B2: SR-AI (scavenger receptor A type I): N143Q (protein)
parent chain: B1 parent chain
B3: SR-AI (scavenger receptor A type I): N249Q (protein)
parent chain: B1 parent chain
B4: SR-AI (scavenger receptor A type I): N102Q (protein)
parent chain: B1 parent chain
B5: SR-AI (scavenger receptor A type I): N267Q (protein)
parent chain: B1 parent chain
B6: SR-AI (scavenger receptor A type I): N102Q-N143Q (protein)
parent chain: B1 parent chain
B7: SR-AI (scavenger receptor A type I): N102Q-N184Q (protein)
parent chain: B1 parent chain
B8: SR-AI (scavenger receptor A type I): N184Q (protein)
parent chain: B1 parent chain
B9: SR-AI (scavenger receptor A type I): N82Q (protein)
parent chain: B1 parent chain
B10: SR-AI (scavenger receptor A type I): N221Q (protein)
parent chain: B1 parent chain
B11: MARCO: N83Q-136Q (protein)
parent chain: MRNKKILKEDELLSETQQAAFHQIAMEPFEINVPKPKRRNGVNFSLAVVVIYLILLTAGAGLLVVQVLNLQARLRVLEMYFLNDTLAAEDSPSFSLLQSAHPGEHLAQGASRLQVLQAQLTWVRVSHEHLLQRVDNFTQNPGMFRIKGEQGAPGLQGHKGAMGMPGAPGPPGPPAEKGAKGAMGRDGATGPSGPQGPPGVKGEAGLQGPQGAPGKQGATGTPGPQGEKGSKGDGGLIGPKGETGTKGEKGDLGLPGSKGDRGMKGDAGVMGPPGAQGSKGDFGRPGPPGLAGFPGAKGDQGQPGLQGVPGPPGAVGHPGAKGEPGSAGSPGRAGLPGSPGSPGATGLKGSKGDTGLQGQQGRKGESGVPGPAGVKGEQGSPGLAGPKGAPGQAGQKGDQGVKGSSGEQGVKGEKGERGENSVSVRIVGSSNRGRAEVYYSGTWGTICDDEWQNSDAIVFCRMLGYSKGRALYKVGAGTGQIWLDNVQCRGTESTLWSCTKNSWGHHDCSHEEDAGVECSV

experiment: FAM-oAβ uptake, confocal fluorescence quantification, COS-7; conditions: glycan lost; control: wild type SR-AI

Protein | other: ligand internalisation
B1 | decreases
B2 | no change
B3 | no change
B4 | no change
B5 | no change
B6 | decreases
B7 | no change
B8 | no change
B9 | no change
B10 | no change

experiment: not described (stated in discussion only); conditions: glycan lost; control: wild type MARCO

Protein | localisation_or_trafficking
B11 | abolishes

experiment: live immunostaining; surface biotinylation pull-down; conditions: glycan lost; control: wild type SR-AI

Protein | localisation_or_trafficking
B1 | no change
B2 | no change
B3 | no change
B4 | no change
B5 | no change
B6 | no change
B8 | no change
B9 | no change
B10 | no change
